According to the domain aggregation screens of Martell et al. (2025):

Assay: soluble fraction after stress (log2 fold change); higher = more stays soluble; pooled small domains, quantitative proteomics
Conditions: stress: 75 degC
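Note: 20 min heating vs room temperature control held 20 min.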

Row | Sequence | soluble fraction (log2)
1 | HMNALNDLESKIFEEVVKAPEIIMNMTIREFASTVHASPTTIVRMTHKLGFSGWNELKTYLQKQKHQIS | -1.72
2 | HMARLQEVVVRVPVEDGQTLAAIYREAEVIERADEGTGVLLTVRIPAPLLGRLRRLEGVHVQP | -1.07
3 | HMLENSLDHIEGIGPKTKDTLLTYFKSVSKIKSANPSILAELIGAAKTKILLAAFEKEKTTS | -0.7
4 | HMINITALVKQLGGVDISKFNSAFKLLQQGKPLNTISNKVMADTFVALMKNSDEALNTKFRAAFKKI | -0.441
5 | HMLTGDVDRYKDFFIALEKTSPVPIGFEKIIGGAHGYYHLEDKRIAIDEGMSELQTLKTAIHEIAHAKLHD | -0.312
6 | HMETYTVPEVLGLTPEQAAQLPEVKDIFTLDVKEEGDFSDKPVGTIVRQSPTEGEHRKGDNLVIEVWLSV | 0.166
7 | HMFPELSEEAKVIVDALSKENDQQLNVLIANTGMAVGTMQAKLFELEMQGVVKPLAGSVYHLM | 0.111
8 | HMTSVPGTVVTNANLRGGPGTNYPIVGKAPAGTTVNVVESTADRTWYYLDTGSWIAAFLVKLS | -0.33
9 | HMDQTKYDAIITEAKKLTAEGQYKESEEKLATIPVSDLGKPHYSIVKETVEKLNNQNNEGLKRQEEVAVE | -0.0329
10 | HMGTTAWISTKTANGSVNIRTGPGTGYGVIGWALNGDKLEVLSRGTSWHYVKLVKNGKIGYVSASYVSFTQ | -3.41
11 | HMQTTQQLIRNLRLKQAATLLADKRHSITEVATLTGFTHPTYFATAFREMFGVSPSEYMEQHI | -1.49
12 | HMTGENWAERSRQLAAAGLLVLGKEAQEKIASLPNLIPLIEAAAASDTRLLNAQTIDELLSFVPTEETI | -0.104
13 | HMNDGEIAAPVSGTLQSFKVEDGQTVSEGDLVAVMEAMKMETQILATKGGTIRLLVKEGDYLQAGHALMTI | -0.667
14 | HMGRLPMNIVRAIVEHLDRHASYSEINRATGASKGFISKVAAAVEAASLTPEKFLLLNDEDIQNRITPGR | -0.739
15 | HMPNTLAGIERYLGSGMVKGIGPVYASRLVSAFGTAVFDVIEQTPERLREIDGIGEKRTRKITSGWADQ | -0.213
16 | HMPLDPFVVDALRDEIINTIKQHEPRVDLQKVQVQPIYTQNRVNISVQYKIVGLPIVEDITFVLQRP | 0.39
17 | HMQALDNNDALEEIIKKVITENPSQVTEFRNGKDSLMNFLVGKVMAASGGKANPKTLPETIEKIIK | 0.277
18 | HMQDELSSSVIEEAVVVLLLRAANIDGKKDEQEIEAIKRLIIQQFNYDEEKADILITSASEK | 0.0178
19 | HMTDVGLEAAKAAALKHAGLSADQVTGLTAKLDWDDGQRVYEVDFWQGSTEYEYEINADGTVRQYESEAH | ≥ 1.04
20 | HMEQTMNDMLKLVDLLPQNQQDIVRMRFYENMSFKEIAESNQISINTALGRMRYAILNLRKYAAERNL | -2.59
21 | HMEDLGYVKVASQTAAIRKSAAVQAGQIGTVHEGETYRYLGEEEGWYLVEYNGQKAYISWDDGEL | -0.323
22 | HMYSFPHQLLKLRTEKQLSQAELATRLFVSRQAVSKWENGDAEPSIDKLILLAKVFNVSLDRLILGT | -4.31
23 | HMFPDLSPEQQRIVDVLTKSNDLQLNQLSVKTGIPIGDITSILFQMEMMGVVKPMAGGNYHLL | -1.68
24 | HMDLKTNSQLINELEKKIKRPFDREIKNYLNKNLSTDRMISNNEIDKIILFYSGNNEIPNIEKISLILNDN | -0.0499
25 | HMFQYEKIKDYILTGLEEGTWQAGDKIPSEAELVMSLNVSRMTVNRAVRELANSGLLVRIPGAGTFVATE | -0.643
26 | HMKKYEIIFNDLKQSIVNGKYSNEERLPPEETLAKKYQTSRVPVQQALNALVGIGMVKRIAGSGTYVTY | -0.394

Row | Sequence | soluble fraction (log2)
27 | HMNKEKLLEMFESMSIIIVQSLEEKEQTEDRIETELFNEAKTPRYSTLTKQDIQSVIRNILITVGV | -1.76
28 | HMKTLELIAAIRKRIAGGYAGADGRLPNIGEIAKDFSVSPMTAQKAVRALVEAGVLTSTRRKGVFLKQPAS | -2.09
29 | HMDIKKHISATLKREMEKRGLNFMEFSTELGIPRTTLQGYLKGTSSPQADSLEELADKLGISPAELVSG | -0.0134
30 | HMLDIQKKGENIAYIEGAGDVIPESLKQIGYHVVTIAPKDINAETLSRFDAVVVGIRAYNTVEDL | 0.0708
31 | HMITKEDVANKKVNLLFFGNFHKMKLPDFEWGITEMMQDRDYLYGSLTKDLYFLGLVLDRKYKI | 0.241
32 | HMVAISNTSGLAGVAYWIQSNIPKGIDIRKDNPGIVTIKNWIDEEYRKGRTTTISEEEMFKLVREYMPEL | -1.87
33 | HMYMKTITEQFGERLKKIRTQKSLSQEQLSYLADIDRSYISDVERGARNISLENIYKLASALNIPPYLVLL | -0.341
34 | HMLTIEEYLTQLKKLMKDRDAATVRDALSDAEEHLRNAMAGEDPSRLDGIIEEYGSPEEIAAAYKIMEEHT | -0.082
35 | HMHHIDTAWFRGKMREHRLTQEAVGQAIGLERSMVSKIIKGTVSFNARKASAWAQLLRVSESEILERVGI | -2.58
36 | HMIDEKVQAADKSIEIGNLSPLKGLVTDDEMHELEKLFEKVMALKDFEVNDVGAGRKYIEAYVSFFKFAEG | -0.418
37 | HMEALSAREIEILQALETGASNRELAKMLFISEATVKTHLVHIYQKLGVGTRTAAITEARERRV | -2.1
38 | HMDVPNLVGEEIKDVRRTLRHFQLEVIGEGSKIVSQVPKHGQRLPENTTIRVYLN | -0.0339
39 | HMQTNEAIINQAVQAAEAQNITTRSQAVDALKANGMTEAQARQLAVQRGISYDQLINELFPME | 0.0149
40 | HMATPEINNLGRLRNAINQSNVNWHQIIKRLQNEYPNNWRQILIAIDRHDLLFRYDVENYIKYG | -2.31
41 | HMGPVRDLGLLESAAHRPTTALWGRDVYATIEKKAAALLDSLVRDRPLADGNKRLGWLAALV | 0.291
42 | HMAEKRTAIITTARADIRQKPEATAPLAFEAVKDVVLELTDKPADGWVRVKHRDGSTGYIRINQI | 0.0638
43 | HMNVPLYIMIESAVEQRLLDGTYQVGKMIPTEFELMDEFSVSRETVRKAINLLVQRGKLEKKRGIGTFVAS | -3.28
44 | HMPPPTLVESAYNHLKADIISSYLKPDEKINLKDLSQRYQVSETPIKQALNRLISEGLIISVPRKGMWVH | 0.0697
45 | HMKRAVGLDEYRDSIVLKKPEGYTEESYAAYKNAYDALMALDSKETTAEMFANAKSAFEAAQAGLVQKP | 0.119
46 | HMSVDEVEALYLKIAEDRLEGKLPDKVSESDLMRRYGLTKAQLGAILQRIVHEGWIERTPGHGWRFLPIL | -0.538
47 | HMETYHIQMKGDPSKGIVGFSQLDMVIDKIKRLETEKGIAPYELEVLDGDTMEKYSGEEFLTMHE | -0.0165
48 | HMEESEMIAFATVAHRIVGKPVEAVMRSYRNRDNIPADIAAIVSSKFTFSVTMAEASYRNPKKSYQVNSII | 0.275
49 | HMEIPTPAELREKRIRMGLKQADVARMAGISQSMVARIESGSVDPRVSTLAKIVEVLQAAER | -0.488
50 | HMQPIQPNQAKYLDGLSSKYKGKGNHSQAAQLTALRDALNAGDHAKAREIYDKLDYEPQAEAAH | 0.364
51 | HMTHFRTDERRREILSTIEADGRVSVSEIASRFDVSPVTIRSDLNYLAIQGKLKRVRGGAVLLDH | -1.17
52 | HMHDRRSGKVKWYSDRKGYGFIDLDGGEVFIHRSALIAFGALRLQAEDIITITVRETDRGLVVDQLFGIER | -1.66

Row | Sequence | soluble fraction (log2)
53 | HMRPTDVLNYDESMRILNFSNNRVGFKHLMDAKGIEQVIFKNRKIGYRKSEILALKSELEAEQK | -0.958
54 | HMSDYLGSLSHEEKMIFNHFDEDSSTIENMAKKTELKPELISQIFLNLELRGFLRQTEGGLYEKI | -0.43
55 | HMKWGDTPTVEVPNLIGMKKKDLQTQLVDLKLDISGDGEKVIKQSPEAGAKVKEGSKIRIYFG | -0.332
56 | HMDNTSNVEKTLRFIRQRGKVSRKEVETLLGSSKFPAISALNELLAENKIVKTGSGPAVRYSVS | -0.353
57 | HMHESLAEVAARKLRALIVTGELAPGERVTEAGLTDLLEISRTPAREAIRILSSEGLLVVFPNRGAEVV | -0.94
58 | HMKRNTKAEVLEILLNSGETPVSGERLAENLGISRNAVWKAVTALKEDGYNISAKRNSGYILNKS | -0.143
59 | HMRLPNGYGSITKLSGKRRKPFMVRITTGYDNEGKQLMSVLGYYATRTEALAVLAEYNKNPYNPI | -3.36
60 | HMSNYPYLLRTYEGKLAVFTDDLVQPDLVFDVYVRTLPELDQQQLSRGIRVKTYDELTSMIEDYI | -2.22
61 | HMEREKTYLMPDLIGRKAERVVPRLQASGFKVEDIRHVYYPGLEKGVIVRQSPPGGYPIQKRNLINLEVS | -0.581
62 | HMVANLPFNYKVYAKKGKLYVVISYKDSNGKYKKKWIRTGLDEGTKKKEVNTVADQIAAEYYSSMRLE | -3.52
63 | HMLVGRDPQALILGSMPSEKSLEEDEYYAHPRNRFWSLMNWLLAGNKTRPAYKTGIEILSSHGIALWV | -0.358
64 | HMANLAQITKTNAVALALKDVGAYNSEDLMKFIDLDKVVLGEDGKPQLEDTINSLKESSPYLFQ | 0.134
65 | HMGQLSDREALTVLAREALVELPRAAGDYRNGRTAALQSLVGRVMRKTAGRGNPALLQEIFRSLL | -0.542
66 | HMVDLEINGRQTLQFVANKYGIPVEKLATDLNIPSDRFGEKLGRLRRQYAFTMNDVRKSILKNK | -0.588
67 | HMLRVGASVTANGKYWYDSYGSKPFGTANNLSTTVTRIVPGNPYPIHIGSYGWLQESQIQIT | -1.67
68 | HMASPKEALWRSLAEEPDTWWDNRERKSQPGANPRSPDFKHKESGEALWIESRDTPTWVLETL | -0.196
69 | HMNADTVIGKAGTVIEKIDNVAATGAVKIDGKVWTARSERDNITIDEGTLVKAMAIEGVKLIVEPVT | 0.139
70 | HMGITDHIYQDLKKRLENGNYPAGTRFPSESTLADEFSVNKMTMNKIVSMLAEQGYLIRGNRGAGTRVAEN | -0.399
71 | HMNMFDMRKTGARISQLRRAAGLTQAELAEKLGISYQAVSSWERGSNMPDIGKLLDLARILNTTVDALLSA | -1.19
72 | HMNKLKALREEQGLSMMEIAKQLNMPYTTYVNYEKGTREPNSEMLIKFSKFFNVTIDYLIGNSEQKN | -2.48
73 | HMELEWENYSLAGEIKTTVMLYQNRRNGLPEEAKQKADALMKQLKQAVIENDAQKVEKIDDALTALLFE | -0.564
74 | HMDNEIMYPIQINGKVRAELFVSTERAMDKQYVLEQAKANEKIQGYLEGNRLVKEIFVPKRIVNLVIAP | -0.576
75 | HMSDYKSYLQELVQTDKKSLSYNVVKETGPAHDKTFEVEVEVDGIIYAHGVGKSKKEAEQNAAKNAIMISA | 0.3
76 | HMVVYFGGPVMLERGIVLHTPDISTKGTINVSDDFALTAHKEILDNINKDTSSLQFKLAIGH | -0.616
77 | HMDIFFEKIFNILIGYNQNQENLISEKSILNFHLSHKSNSNFEYIPDEKTPKYIWKYLSNYNLLE | -0.439
